Laboratory results as given in publication PMC8752778, “The RNA methyltransferase METTL8 installs m3C32 in mitochondrial tRNAsThr/Ser(UCN) to optimise tRNA structure and mitochondrial translation”.

Legend:
[1] = target: T1, His14-MBP-METTL8 (Homo sapiens, UniProt B3KW44 1-407); assay: fluorescence anisotropy; 30 mM phosphate pH 7.3, 200 mM KCl, 20 nM labelled oligonucleotide, 0-2 uM protein, 5 min at room temperature, measured at 22 C; conditions: protein: recombinant; tags: N-terminal His14-MBP; label: fluorescein (5' click per Methods); hairpin
T1 sequence: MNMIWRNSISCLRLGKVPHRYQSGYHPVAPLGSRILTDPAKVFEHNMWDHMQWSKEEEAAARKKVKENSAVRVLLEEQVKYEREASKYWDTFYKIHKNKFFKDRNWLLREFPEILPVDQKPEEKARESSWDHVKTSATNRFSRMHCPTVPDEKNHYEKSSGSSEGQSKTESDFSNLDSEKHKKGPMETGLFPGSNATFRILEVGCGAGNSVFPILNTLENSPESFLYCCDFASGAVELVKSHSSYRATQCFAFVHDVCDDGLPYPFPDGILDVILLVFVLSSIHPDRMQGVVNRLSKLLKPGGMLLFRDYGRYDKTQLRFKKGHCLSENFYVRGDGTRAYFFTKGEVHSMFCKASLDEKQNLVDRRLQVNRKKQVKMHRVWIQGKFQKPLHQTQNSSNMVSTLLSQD

[2] = target: T1, His14-MBP-METTL8; assay: fluorescence anisotropy; up to 2 uM protein; 30 mM phosphate pH 7.3, 200 mM KCl, 20 nM labelled oligonucleotide, 0-2 uM protein, 5 min at room temperature, measured at 22 C; conditions: protein: recombinant; tags: N-terminal His14-MBP; label: 5' fluorescein
[3] = target: T1, His14-MBP-METTL8; assay: fluorescence anisotropy; high affinity; Kd only in figure; 30 mM phosphate pH 7.3, 200 mM KCl, 20 nM labelled oligonucleotide, 0-2 uM protein, 5 min at room temperature, measured at 22 C; conditions: protein: recombinant; tags: N-terminal His14-MBP; label: fluorescein (5' click per Methods); hairpin
[4] = target: T1, His14-MBP-METTL8; assay: fluorescence anisotropy; affinity similar to ASLs; Kd only in figure; 30 mM phosphate pH 7.3, 200 mM KCl, 20 nM labelled oligonucleotide, 0-2 uM protein, 5 min at room temperature, measured at 22 C; conditions: protein: recombinant; tags: N-terminal His14-MBP; label: fluorescein (5' click per Methods); single strand
[5] = target: T1, His14-MBP-METTL8; assay: fluorescence anisotropy; 30 mM phosphate pH 7.3, 200 mM KCl, 20 nM labelled oligonucleotide, 0-2 uM protein, 5 min at room temperature, measured at 22 C; conditions: protein: recombinant; tags: N-terminal His14-MBP; label: 5' fluorescein; hairpin
[6] = target: T1, His14-MBP-METTL8; assay: fluorescence anisotropy; high affinity; lower than i6A37 ASL; Kd only in figure; 30 mM phosphate pH 7.3, 200 mM KCl, 20 nM labelled oligonucleotide, 0-2 uM protein, 5 min at room temperature, measured at 22 C; conditions: protein: recombinant; tags: N-terminal His14-MBP; label: fluorescein (5' hexynyl/6FAM azide click); hairpin

GUUGGCUUGAAACCAGCU (structured_RNA, m3C at strand position 6 (C32); i6A at strand position 11 (A37)) [mt-tRNASer(UCN) m3C32 i6A37 ASL] was tested, and the binding signal [1] was ~2.5 fold weaker than i6A37 ASL (N6).

GATGTGCAGCTGCACATC (ssDNA) [DNA oligonucleotide]: no binding [2].

UCGGGCCCAUACCCCGA (structured_RNA) [mt-tRNAMet ASL]: binds [3].

GACAUACUGACCCUUCAAAUA (ssRNA) [Unstructured RNA 2]: binds [4].

GUAAAAGUCGUAACAAAGGU (ssRNA) [Unstructured RNA R420]: binds [4].

Work on GUUGGCUUGAAACCAGCU (structured_RNA, i6A at strand position 11 (A37)) [mt-tRNASer(UCN) i6A37 ASL] yielded a Kd [5] of 200 nM.

GUUGGCUUGAAACCAGCU (structured_RNA) [mt-tRNASer(UCN) ASL unmodified]: binds [6].
